Test results taken from US7223392 (dated 2007).

Columns and labels:
p5E8G1N- = experiment: apparent Kd
p5E8G1 = experiment: apparent Kd

B1: human CD23 (receptor)
chain: MELQVSSGFVCNTCPEKWINFQRKCYYFGKGTKQWVHARYACDDMEGQLVSIHSPEEQDFLTKHASHTGSWIGLRNLDLKGEFIWVDGSHVDYSNWAPGEPTSRSQGEDCVMMRGSGRWNDAFCDRKLGAWVCDRLATCTPPASEGSAESMGPDSRPDPDGRLPTPSAPLHS
**Q.** What does the source list for B1?
**A.** Kd (p5E8G1N-): 0.7 nM; Kd (p5E8G1): 0.7 nM
